# Measurements as given in patent US20110318789A1 (CAMBRIDGE ENTERPRISE, published 2011).
# B1: Mt-Ku (Mycobacterium tuberculosis Ku-like protein, ORF Rv0937c), recombinant histidine-tagged (other)
# chain: MRAIWTGSIAFGLVNVPVKVYSATADHDIRFHQVHAKDNGRIRYKRVCEACGEVVDYRDLARAYESGDGQMVAITDDDIASLPEERSREIEVLEFVPAADVDPMMFDRSYFLEPDSKSSKSYVLLAKTLAETDRMAIVHFTLRNKTRLAALRVKDFGKREVMMVHTLLWPDEIRDPDFPVLDQKVEIKPAELKMAGQVVDSMADDFNPDRYHDTYQEQLQELIDTKLEGGQAFTAEDQPRLLDEPEDVSDLLAKLEASVKARSKANSNVPTPP
# Key:
# [1] = biological target: Mt-Lig expressed in yeast as amino-terminal Myc epitope-NLS fusion protein (pNLS16) (Mycobacterium tuberculosis) (UniProt P9WNV3); assay: cell-based or functional assay
# [2] = biological target: Mt-Lig (Mycobacterium tuberculosis ATP-dependent ligase, ORF Rv0938), recombinant histidine-tagged (Mycobacterium tuberculosis, UniProt P9WNV3 1-759); assay: cell-based or functional assay
# Sequence of Mt-Lig (Mycobacterium tuberculosis ATP-dependent ligase, ORF Rv0938), recombinant histidine-tagged (P9WNV3 whole entry, the tested form may be a part): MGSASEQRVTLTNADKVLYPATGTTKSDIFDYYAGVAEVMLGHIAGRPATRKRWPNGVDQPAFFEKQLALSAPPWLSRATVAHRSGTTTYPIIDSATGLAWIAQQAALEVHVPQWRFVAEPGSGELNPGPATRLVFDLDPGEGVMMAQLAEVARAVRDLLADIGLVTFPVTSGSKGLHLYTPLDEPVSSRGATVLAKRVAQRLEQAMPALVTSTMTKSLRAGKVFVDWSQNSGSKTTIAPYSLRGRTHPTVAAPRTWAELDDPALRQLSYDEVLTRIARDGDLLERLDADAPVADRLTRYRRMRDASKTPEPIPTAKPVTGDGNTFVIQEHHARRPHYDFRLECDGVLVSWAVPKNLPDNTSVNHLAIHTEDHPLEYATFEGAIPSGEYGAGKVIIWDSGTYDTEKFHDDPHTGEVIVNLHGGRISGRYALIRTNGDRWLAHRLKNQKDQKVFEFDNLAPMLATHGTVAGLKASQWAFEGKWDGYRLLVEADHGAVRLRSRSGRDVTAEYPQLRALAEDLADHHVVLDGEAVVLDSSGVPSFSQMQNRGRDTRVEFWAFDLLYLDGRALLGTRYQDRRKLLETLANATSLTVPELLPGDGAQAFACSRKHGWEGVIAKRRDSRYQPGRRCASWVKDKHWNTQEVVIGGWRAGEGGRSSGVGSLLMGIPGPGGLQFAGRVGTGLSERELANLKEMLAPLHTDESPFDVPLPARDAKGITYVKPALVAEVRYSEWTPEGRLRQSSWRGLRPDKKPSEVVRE
# Sequence of Mt-Lig expressed in yeast as amino-terminal Myc epitope-NLS fusion protein (pNLS16) (Mycobacterium tuberculosis) (P9WNV3 whole entry, the tested form may be a part): as above
Molecule,NHEJ frequency in yku70 mutant yeast (suicide deletion assay) (% of the wild-type yeast level) [1],DNA ligation activity of Mt-Lig on dsDNA fragments upon addition of Mt-Ku [2] [fold],activity of Mt-Lig in an in vitro plasmid repair assay [2] [fold]
Mt-Ku expressed in yeast as amino-terminal Myc epitope-NLS fusion protein (pNLS15) (from UniProt P9WKD8 1-273),50,,
B1,,> 30,20
